Numbering of substitutions follows the chain as printed.
B1: P3G7 (antibody, V domains shown)
VH: EVQLVESGGGLVQPGRSLTLSCAVTGFIVRDYHIDWVRQAPGKGLEWVGRARNKASRYRVVYAASLKDRFTIIRDDSKNSIYLRMSSLKTEDAAMYFCVRVGHYDTQGYALDDYDVWGQGTAVTVSS
VL: QSVLTQSPSVSAAPGQRVTIHCFGSSSTIGSNQLSWYQQVPGTAPKLLIYDSDKRPSGIPDRFSASKSGTSGTLDISGLQSGDEADYYCETWDDTLKAVVFGGGTKLTVL
B2: P1D7 (antibody, V domains shown)
VH: EVQLLESGGGLVQPGGSLRLSCAASGFTFTSYAMSWVRQAPGKGLEWVSALSNSGDSTYYADSVKGRFTISRDNSKNTLYLQMHSLRVEDTAVYYCAKDREGDYGDYVFDYWGQGTLVTVSS
VL: SYVLTQPPSVSVAPGQTARIPCGGNNIGRKSVHWYQQKPGQAPVLVVYDDSDRPSGIPERFSGSNSGNTATLTISRVEAGDEADYYCQVWDSSDDLVVFGGGTTLTVL
B3: P1B7 (antibody, V domains shown)
VH: EVQLLESGGGLVQPGGSLRLSCAASGFTFKSYAMSWVRQAPGKGLEWVSAISGSGGSKYYADSVKGRFTISRDDSKNTLYLQMNSLRVEDTAVYYCAKPLLDSVYCLESWGQGTLVTVSS
VL: DIQMTQSPSSLSASVGDRVTITCRASQDISNYLSWYQQRPGKAPKSLIYAAFRLQSGVPSKFSGSGSGTDFTLTISSLQPEDFATYYCQQYYTYPPTFGQGTKLEIK
B4: P5D5 (antibody, V domains shown)
VH: B3 VH with K30N, S31N, N77S, T78R, V93L, A97T, D102E, C106Y
VL: B3 VL with D28G, Y32H, S34A, Y36F, R39K, F52S, K61R, T85S, T93S, T97A
B5: P3G2 (antibody, V domains shown)
VH: QVQLQESGPGLVKPSETLSLTCSVSGGSVASGDFYWSWVRQPAGTGLEWIGRVSTSGSTNCNPSLKSRVTISIDTSKNEFSLRLPSVTAADTAVYYCARYRPGSGGLGVYYDYWGQGILVTVSS
VL: QSALTQPPSASGSPGQSVTISCTGASSDIGGYNYVSWYQQHPGRAPRLMIYEVHNRPSGVPDRFSGSKSGNTASLTVSGLQAEDEADYYCMSYAGGNILLFGGGTKLTVL
B6: P1D5 (antibody, V domains shown)
VH: QVQLHESGPGLVEPSQTLTLTCTVSGGSTDSDGVYWTWIRQPAGKGLEWIGRIDNRGTYSYNPSLRSRITISEEPSQNQFSLRVRSLTAADAGVYYCAREVRRLQGRRYYYYGTDVWGPGTTVTVSS
VL: DIVMTQSPLSLSVTLGESASISCRSSQSLLHTNAYNYLDWYLQRPGQSPQLLIYLSSVRASGVPDRFSGRGSGTDFTLKISRVEAEDVGIYFCMQALEMPFTFGPGTKVDIK
B7: P5G10 (human anti-PscF monoclonal antibody) (antibody, V domains shown)
VH: VQLQQWGAGLLKPSETLSLTCAVYGGSFSDYYWTWIRQAPGKGLEWIGENRHRGTTNYNPSLKGRVTISVDTSKNQFTLKVTSVTAADTAVYFCARQRGSSGGAPSGLDVWGQGTTVTVSS
VL: QSVLTQPPSASGTPGQRVTISCSGASSNIGTNYVFWYQQFPGTAPKLLIYRNGHRPSGVPDRFSGSKSGASASLAISGLRSDDEADYYCATWDDSLSSQVFGGGTKLTVL
notes: also called P5G10 mAb

Target: T1, PscF from strain PAO1 (Pseudomonas aeruginosa PAO1, UniProt P95434)
T1 sequence (P95434 whole entry): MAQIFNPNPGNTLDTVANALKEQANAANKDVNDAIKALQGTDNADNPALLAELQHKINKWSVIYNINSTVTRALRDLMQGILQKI
Assay: not given
Details: not given

| Binder | binding result |
| --- | --- |
| B1 | binds |
| B2 | binds |
| B3 | binds |
| B4 | binds |
| B5 | binds |
| B6 | binds |

Target: T1, PscF from strain PAO1
Assay: ELISA; competition ELISA; serial dilutions of competitor mAbs on antigen-coated wells for 30 min, then biotinylated mAbs at their EC70; detected with AP-conjugated streptavidin
Details: both partners purified

| Binder | binding result |
| --- | --- |
| B7 | binds |

From paper PMC12912723 (eLife, 2026)
